{
  "source": "patent US6593108B1",
  "about": "(priority 1999, dated 2003)",
  "key": {"HG67": {"target": "T1, HG67 (Homo sapiens, UniProt Q969V1)", "T1 construct": "expressed in transfected cells; host or cells: HEK-293T, transient", "T1 sequence (Q969V1 whole entry)": "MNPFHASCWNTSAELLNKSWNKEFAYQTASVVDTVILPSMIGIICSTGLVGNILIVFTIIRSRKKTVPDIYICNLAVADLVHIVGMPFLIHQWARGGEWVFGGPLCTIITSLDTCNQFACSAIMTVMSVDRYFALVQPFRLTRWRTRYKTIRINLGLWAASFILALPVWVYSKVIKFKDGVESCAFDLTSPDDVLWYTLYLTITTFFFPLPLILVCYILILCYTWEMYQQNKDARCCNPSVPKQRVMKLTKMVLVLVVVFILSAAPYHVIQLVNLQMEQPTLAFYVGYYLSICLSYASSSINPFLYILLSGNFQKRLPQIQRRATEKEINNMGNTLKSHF", "assay": "Intracellular calcium ([Ca2+]i) measurement with fura-2 in HEK293T cells transiently expressing HG67", "type": "cell-based", "settings": "HEK293T cells transiently expressing HG67, fura-2; read-out: EC50 of increase in intracellular calcium levels", "from_the_text": "(§1) The entire coding sequence of human HG67 was cloned into BamHI -NotI site of pEF1/V5-HisB plasmid vector (Invitrogen, Carlsbad, Calif.). The resultant construct was transfected into HEK-293T cells using Effectene (Qiagen, Hilden, Germany) or LipofectAmine PLUS (Life Technologies) according to the manufacture's instructions. Human embryonic kidney cells constitutively expressing SV40 large T antigen (HEK-293T) were maintained in D-MEM/F-12 medium (Life Technologies, Rockville, Md.) supplemented with 10% fetal bovine serum, 100 units/ml penicillin-G and 100 μg/ml streptomycin at 37° C. with 5% CO2 in a humidified atmosphere.\n(§2) The intracellular calcium ion concentration ([Ca^2+]i) was measured fluorometrically using a Ca^2+-sensitive fluorescent dye, fura-2. HEK293T cells transiently transfected with pEF1/V5-HisB plasmid vector harboring HG67 cDNA were harvested by phosphate-buffered saline containing 2 mM EDTA 48 hours after transfection, and washed once with the assay buffer (Hanks' balanced salt solution, 10 mM HEPES, 0.1% BSA, pH 7.4). The cells were suspended with the buffer containing 2 μM fura-2 acetoxymethylester (Dojin, Kumamoto, Japan) into the cell density of 1.0×10^7 cells/ml and incubated at 37° C. for 60 minutes with gently shaking. The fura-2-loaded cells were washed twice with the buffer and re-suspended with the buffer to 1.0×10^6 cells/ml. […]"}, "non-transfected cells": {"tested_on": "non-transfected cells", "assay": "Intracellular calcium ([Ca2+]i) measurement with fura-2 in non-transfected cells", "type": "cell-based, human", "settings": "data not shown", "from_the_text": "as §1, §2"}, "[1]": {"target": "HG67 (melanin-concentrating hormone receptor 2) (human) (UniProt Q969V1)", "sequence (Q969V1 whole entry)": "as above", "assay": "cell-based or functional assay"}, "MCH-R1 [2]": {"target": "T2, MCH-R1 (Homo sapiens, UniProt Q99705)", "assay": "cell-based or functional assay"}, "MCH-R1 [3]": {"target": "T2, MCH-R1", "assay": "SPA, displacement of [125I]Phe13Tyr19-MCH from MCH-R1 membranes"}, "[4]": {"target": "HG67 (melanin-concentrating hormone receptor 2) (human) (UniProt Q969V1)", "assay": "SPA, displacement of [125I]Phe13Tyr19-MCH from MCH-R2 membranes"}, "MCH-R1 [5]": {"target": "T2, MCH-R1", "assay": "SPA, CHO/MCH-R1 membranes, nonspecific defined with 500 nM unlabeled MCH"}, "[6]": {"target": "HG67 (melanin-concentrating hormone receptor 2) (human) (UniProt Q969V1)", "assay": "SPA, COS or CHO MCH-R2 membranes, nonspecific defined with 500 nM unlabeled MCH"}, "mock transfected cells": {"tested_on": "mock transfected cells", "assay": "[125I]-MCH binding to mock transfected HEK293T cells", "parameters": "species or system human"}, "MCH-R1 [7]": {"target": "T2, MCH-R1", "assay": "Pertussis toxin effect on MCH-R1 signaling", "type": "cell-based", "settings": "dose dependent", "from_the_text": "MCH-R2 appears to activate Gαq. […] Intracellular calcium mobilization through MCH-R2 was not affected by different concentrations of pertussis toxin (PTX), while MCH-R1 signaling was reduced in a dose dependent manner to about 50%. The results of incomplete PTX-inhibition of MCH-R1 signaling is in contrast to Lembo, et al., 1999. […] (Tadayyon, et al., 2000. 275(2), 709-712)."}, "MCH-R1 [8]": {"target": "T2, MCH-R1", "settings": "Lembo, et al., 1999; cited from earlier work"}, "[9]": {"target": "T3, HG67 (melanin-concentrating hormone receptor 2) (human, UniProt Q969V1 1-340)", "T3 sequence (Q969V1 whole entry)": "as above", "assay": "cell-based or functional assay"}, "[10]": {"target": "T3, HG67 (melanin-concentrating hormone …)", "assay": "cell-based or functional assay", "remark": "listed apart in the source"}, "[11]": {"target": "T3, HG67 (melanin-concentrating hormone …)", "assay": "SPA, displacement of [125I]Phe13Tyr19-MCH from MCH-R2 membranes", "method": "(§3) SPA was carried out using wheat-germ agglutinin-polyvinyltoluene beads (Amersham Corp., Arlington Heights, Ill.), in 96-well OptiPlates (Packard, Meriden, Conn.). Each well contained 0.25 mg of SPA beads, 1–10 μg of membrane protein, and 200 μl of binding buffer.\n(§4) After equilibrating at room temperature for 3 hours, the plates were read in a TopCount (Packard, Meriden, Conn.). IC$50$ calculations were performed using Prism 3.0 (GraphPad Software, San Diego, Calif.)."}, "MCH-R1 [12]": {"target": "T4, MCH-R1 (Homo sapiens (Human), UniProt Q99705 1-353)", "T4 sequence (Q99705 whole entry, form in doubt)": "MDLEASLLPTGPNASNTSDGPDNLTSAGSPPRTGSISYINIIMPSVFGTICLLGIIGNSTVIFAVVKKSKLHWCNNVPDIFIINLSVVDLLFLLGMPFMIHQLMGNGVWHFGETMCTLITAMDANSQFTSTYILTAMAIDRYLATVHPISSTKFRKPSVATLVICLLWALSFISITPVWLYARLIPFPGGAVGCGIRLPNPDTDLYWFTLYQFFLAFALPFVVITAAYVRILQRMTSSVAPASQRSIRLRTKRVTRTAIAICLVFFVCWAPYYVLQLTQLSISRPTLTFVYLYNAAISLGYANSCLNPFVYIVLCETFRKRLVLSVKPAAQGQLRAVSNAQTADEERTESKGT", "assay": "cell-based or functional assay"}, "MCH-R1 [13]": {"target": "T4, MCH-R1", "assay": "SPA, displacement of [125I]Phe13Tyr19-MCH from MCH-R1 membranes", "method": "as §3, §4"}},
  "note": "Where “and” joins values, the source holds several entries; their conditions need not be identical. Identical values can stand only once. Where a SMILES comes first, the peptide text is derived from it. Bridges are numbered along the chain shown (N, C = ends). Where no end group is shown, it is not given here.",
  "data": [
    {"molecule": "CSCC[C@@H]1NC(=O)[C@@H](NC(=O)[C@H](CCCNC(=N)N)NC(=O)[C@H](CC(C)C)NC(=O)[C@H](CCSC)NC(=O)[C@H](CC(=O)O)NC(=O)[C@H](Cc2ccccc2)NC(=O)[C@@H](N)CC(=O)O)CSSC[C@@H](C(=O)N[C@@H](Cc2c[nH]c3ccccc23)C(=O)N[C@@H](CCC(N)=O)C(=O)N[C@@H](CC(C)C)C(=O)O)NC(=O)[C@@H]2CCCN2C(=O)[C@H](CCCNC(=N)N)NC(=O)[C@H](Cc2ccccc2)NC(=O)[C@H](C(C)C)NC(=O)[C@H](CCCNC(=N)N)NC(=O)CNC(=O)[C@H](CC(C)C)NC1=O", "note": "[[Phe^13, Leu^19]-MCH] (H-DFDMLRCMLGRVFRPCWQL-OH; disulfide 7-16 (inferred); N-terminus and C-terminus assumed)", "values": [
      {"measurement": "EC50", "setting": "HG67", "value": 0.078, "unit": "nM"},
      {"measurement": "[Ca2+]i increase in the non-transfected cells", "setting": "non-transfected cells", "value": "failed to induce detectable [Ca^2+]i increase"}
    ]},
    {"molecule": "Melanin-concentrating hormone [MCH]", "values": [
      {"measurement": "[Ca2+]i increase in the non-transfected cells", "setting": "non-transfected cells", "value": "failed to induce detectable [Ca^2+]i increase"}
    ]},
    {"molecule": "Salmon MCH (peptide)", "values": [
      {"measurement": "Function (EC50)", "setting": "[1]", "value": 90.5, "unit": "nM"},
      {"measurement": "Function (EC50)", "setting": "MCH-R1 [2]", "value": 119, "unit": "nM"},
      {"measurement": "IC50", "setting": "MCH-R1 [3]", "value": 0.2, "unit": "nM"},
      {"measurement": "IC50", "setting": "[4]", "value": 437, "unit": "nM"}
    ]},
    {"molecule": "[125I]Phe^13Tyr^19-MCH (from UniProt P20382 147-165) (peptide)", "values": [
      {"measurement": "specific binding window", "setting": "MCH-R1 [5]", "value": 6, "unit": "x"},
      {"measurement": "specific binding window", "setting": "[6]", "value": 3, "unit": "x"}
    ]},
    {"molecule": "[Phe^13, Leu^19]-MCH (from UniProt P20382 147-165) (peptide)", "values": [
      {"measurement": "increase in intracellular calcium levels (fura-2), EC50", "setting": "[1]", "value": 0.078, "unit": "nM"}
    ]},
    {"molecule": "[^125I]-MCH: radioiodinated MCH, NEN Life Science Products", "values": [
      {"measurement": "Specific binding to mock transfected cells", "setting": "mock transfected cells; in words", "value": "any specific binding was not observed"},
      {"measurement": "Nonspecific binding (1 μM MCH)", "setting": "mock transfected cells; mock transfected HEK293T cells, [125I]-MCH 100 pM plus 1 μM cold MCH, two values per cell", "value": "352.2 Cpm and 326.6 Cpm"},
      {"measurement": "Total binding (DMSO)", "setting": "mock transfected cells; mock transfected HEK293T cells, [125I]-MCH 100 pM, two values per cell", "value": "516.4 Cpm and 392.5 Cpm"}
    ]},
    {"molecule": "pertussis toxin", "values": [
      {"measurement": "MCH-R1 signaling remaining after PTX (reduced to)", "setting": "MCH-R1 [7]", "value": "about 50%"},
      {"measurement": "PTX inhibition of MCH-1R signaling", "setting": "MCH-R1 [8]", "value": "complete PTX inhibition"}
    ]},
    {"molecule": "DFDMLRCMLGRVYRPCWQV (peptide, UniProt P20382 147-165, looked up, ends and bridges not checked; cysteine pairing not given here, mature; Both are treated as one molecule; the mature 19-mer is its C-terminal part; also called Human MCH; cold MCH)", "note": "[human melanin-concentrating hormone (MCH)]", "values": [
      {"measurement": "IP turnover, EC50", "setting": "[9]", "value": 2.8, "unit": "nM"},
      {"measurement": "aequorin assay in HEK293/aeq17/Galpha15 cells, EC50", "setting": "[9]", "value": 26, "unit": "nM"},
      {"measurement": "increase in intracellular calcium levels (fura-2), EC50", "setting": "[9]", "value": 0.02, "unit": "nM"},
      {"measurement": "Function (EC50)", "setting": "[10]", "value": 44.1, "unit": "nM"},
      {"measurement": "IC50", "setting": "[11]", "value": 1.5, "unit": "nM"}
    ]},
    {"molecule": "DFDMLRCMLGRVFRPCWQY", "note": "[(Phe^13Tyr^19)-MCH]", "values": [
      {"measurement": "Function (EC50)", "setting": "[10]", "value": 65.5, "unit": "nM"},
      {"measurement": "Function (EC50)", "setting": "MCH-R1 [12]", "value": 83.1, "unit": "nM"},
      {"measurement": "IC50", "setting": "MCH-R1 [13]", "value": 0.3, "unit": "nM"},
      {"measurement": "IC50", "setting": "[11]", "value": 0.8, "unit": "nM"}
    ]}
  ]
}
